Tests used:
MMP-1 = MMP-1 assay (fluorometric ELISA of fibroblast culture media); format: cell-based, human; conditions: for MMP-1 Activity: 48 hours, untreated 0.11 ± 0.05
Method: MMP-1 is a zinc and calcium dependent endopeptidase that is produced and released from both dermal fibroblasts and keratinocytes, and functions to break down collagens located in the extracellular matrix. Active MMP-1 released into the culture media can be assayed using a fluorescence-based ELISA. […] To quantify the active MMP-1 a fluorogenic substrate linked to a quencher molecule is added and any active MMP-1 present will cleave the peptide linkage between the fluorophore and the quencher molecule. This cleavage will eliminate the quencher molecules ability to inhibit the fluorescent signal of the fluorophore allowing a fluorescent signal that will be proportional to the amount of active MMP-1 present.
(§1) The test materials were tested in triplicate.
R&D Products MMP-1 Fluorokine E fluorometric ELISA kits were used in these experiments. A series of MMP-1 standards was prepared ranging from 0.39 ng/ml to 25 ng/ml and an ELISA microplate was prepared by removing any unneeded strips from the plate frame. In each well, 200 μA of Assay Diluent RD1-64 and 50 μA of each sample were added. For the standards, 100 μl of Assay Diluent RD1-64 and 150 μl of each respective standard were added. The plate was incubated for 3±0.25 hours at room temperature on a rocking platform. At the end of the incubation period, each well was aspirated and then washed four times with 400 μl of wash buffer. […] After the incubation period, the plate was washed four times as described above. After the last wash, 200 μl of substrate solution were added to each well and the plate was incubated for 17-20 hours at 37±2° C. (protected from light). At the end of the incubation period, the fluorescence intensity was measured (excitation 320 nm, emission 405 nm) using a fluorometer using a 20 mS integration time. To quantify the amount of MMP-1 activity, a standard curve was generated using known activity levels of MMP-1. […] Mean absorbance values for the test materials and untreated samples were then used to estimate the amount of MMP-1 activity present in each sample.

elastin = assay: Elastin assay (Fastin colorimetric assay of culture media); format: cell-based, human; conditions: 48 hours, spent fibroblast media, untreated 69 ± 2
Method: Elastin is released by fibroblasts (soluble elastin) into the extracellular space where it is then cross-linked to other elastin proteins to form an extensive network of fibers and sheets (insoluble elastin). Soluble elastin can be readily measured from cell culture medium via a colorimetric assay.
as §1
In these experiments, the Biocolor Fastin Elastin Assay kits were used. A 50 μl aliquot of sample material (cell culture medium for soluble elastin) was mixed with 1.0 ml of cold Fastin Precipitating Reagent in a 1.5-ml microcentrifuge tube. In addition to the spent media samples from the fibroblasts, 50 μl aliquots of the test materials diluted into fresh culture media at the concentrations used in the study were also assayed for elastin content. The sample/Fastin Precipitating Reagent mixture was then incubated overnight in an ice water bath to precipitate the elastin. On the following day, the cold microcentrifuge tubes were spun at 10,000×g for 10 minutes to pack the precipitated elastin and the supernatant was removed via careful aspiration.
One (1) ml of Fastin Dye Reagent, along with 100 μl of 90% saturated ammonium sulphate was added to each tube. The microcentrifuge tubes were mixed with a vortex mixer and then allowed to incubate for at least 60 minutes at room temperature, with gentle mechanical agitation. The Fastin Dye Reagent interacts with unique amino acid sequences in the elastin protein. This elastin-dye complex precipitates in the presence of ammonium sulphate. After the incubation was over, the microcentrifuge tubes were spun at 10,000×g for 10 minutes to separate the precipitated elastin-dye complex from the unbound dye. The supernatant was carefully removed and the tubes were inverted to allow any residual supernatant to drain out.
To release the elastin-bound dye, 1.0 ml of Fastin Destain reagent was added to each microcentrifuge tube. The tubes were capped as quickly as possible, as this reagent contains ammonia and methanol. The tubes were then vortexed. The absorbance of this solution was measured by a plate reader at 490 nm (200 μl volume read).
An elastin standard curve was generated using 12.5, 25, and 50 μg aliquots of an Elastin Standard into microcentrifuge tubes (in duplicate). These samples were treated as described above (Elastin Assay) and the absorbance values were used to generate a standard curve of known concentrations. To derive the standard curve for the elastin assay, the absorbance was plotted against the elastin concentration in μg/ml for the standards. […] Mean absorbance values for the test materials and untreated samples were then used to estimate the amount of elastin present in each sample.

[1] = system: Fibroblasts (HDFn Cell Line); assay: Initial pilot cell viability dose response (MTT assay); conditions: initial dose response, summary in words
Method: (§2) Initial screening was conducted to identify a test range suitable to determine the effect of a broad range of test material concentrations on cell viability. […] Cultured fibroblasts were exposed to the test materials for 48 hours and then changes in cell viability were determined using an MTT assay (i.e., a colorimetric analysis of the metabolic activity of the cultured cells, described in greater detail below).
(§3) The purple crystals are extracted from the cells with isopropanol and the amount of crystal formation quantified spectrophotometrically. […] A decrease in color intensity can be a sign of toxicity.
(§4) Fibroblasts (Cascade Biologics, HDFn Cell Line, lot#1C0914) were seeded into the individual wells of either a 96-well plate (for the initial pilot work to determine concentration effects on cell viability) in 100 μl of Fibroblast Growth Media (FGM) or in 12-well plates (for the measurement of collagen, elastin and MMP-1) in 1.0 ml of FGM and incubated overnight at 37±2° C. and 5±1% CO2. On the following day, the medium was removed via aspiration to eliminate any non-adherent cells and replaced with fresh FGM. The cells were grown until confluent, with a media change every 48 to 72 hours. Upon reaching confluency, the cells were treated for 24 hours with Dulbecco's Modified Essential Media (DMEM) supplemented with 1.5% FBS to wash out any effects from the growth factors included in the normal FGM. After this 24-hour wash out period, the cells were treated with the test materials at the specified concentrations dissolved in DMEM with 1.5% FBS. Untreated cells (negative controls) received DMEM with 1.5% FBS. The cells were incubated for 48 hours and at the end of the incubation period cell culture medium was either discarded (pilot work) or collected and stored frozen at −75° C. The test materials were tested in triplicate.
(§5) After the 2-day incubation, the cell culture medium was removed and the fibroblasts were washed twice with PBS to remove any remaining test material. After the final wash, either 100 μl (96-well plates) or 300 μl (12-well plates) of DMEM supplemented with 0.5 mg/ml MTT were added to each well and the cells were incubated for 1 hour at 37±2° C. and 5±1% CO2. After the incubation, the DMEM/MTT solution was removed and the cells were washed again once with PBS and then either 100 μl (96-well plates) or 1 ml (12-well plates) of isopropyl alcohol were added to each well to extract the purple formazin crystals. For the 12-well plates, two hundred microliters of the isopropyl extracts was transferred to a 96-well plate. The 96-well plates were read at 540 nm using isopropyl alcohol as a blank. The mean MTT absorbance value for the negative control cells was calculated and used to represent 100% value for cell viability. The individual MTT values from the cells undergoing the various treatments were then divided by the mean value for the negative control cells and expressed as a percent, to determine the change in cell viability caused by each treatment.

[2] = system: procollagen type I C-peptide; assay: Procollagen assay (type I C-peptide ELISA of fibroblast culture media); format: cell-based, human; conditions: 48 hours, untreated 873 ± 111
Excerpt: Collagen is synthesized as part of a much larger procollagen peptide. As the peptide is processed to form a mature collagen protein, the propeptide portion is cleaved off (type I C-peptide). Both the mature collagen protein and the type I C-peptide fragment are then released into the extracellular environment and accumulate in the culture media. Since there is a 1:1 stoichiometric ratio between the two parts of the procollagen peptide, assaying for type I C-peptide will reflect the amount of collagen synthesized. Type 1 C-peptide can be assayed via an ELISA based method.
as §1
Takara procollagen type IC-peptide ELISA kits were used in these experiments. A series of type I C-peptide standards was prepared ranging from 40 ng/ml to 640 ng/ml. An ELISA microplate was then prepared by removing any unneeded strips from the plate frame. To each well in the plate 100 μl of peroxidase-labeled anti procollagen type I-C peptide was added, followed by 20 μA of either sample (tissue culture media) or standard. The microplate was covered and allowed to incubate for 3±0.25 hours at 37° C. After the incubation period, each well was aspirated and washed three times with 400 μl of wash buffer. After the last wash was removed, 100 μl of peroxidase substrate solution (hydrogen peroxide containing tetramethylbenzidine as a chromagen) were added to each well and the plate was incubated for 15±5 minutes at room temperature. After the incubation period, 100 μA of stop solution (1 N sulfuric acid) was added to each well and the plate was read using a microplate reader at 450 nm. To quantify the amount of procollagen present, a standard curve was generated using known concentrations of procollagen type 1-C peptide. […] Mean absorbance values for the test materials and untreated samples was then used to estimate the amount of procollagen type 1-C peptide present in each sample.

[3] = system: Fibroblasts (HDFn Cell Line)
Method: as §2, §3, §4, §5

B1: GC2596-26-E: collagen-like repeat sequence protein polymer, head-[(GAHGPAGPK)2(GAQGPAGPG)24(GAHGPAGPK)2]4-tail; SEQ ID NO:34 (Example 5) (protein)
chain: MDPVVLQRRDWENPGVTQLNRLAAHPPFASDPMGAHGPAGPKGAHGPAGPKGAQGPAGPGGAQGPAGPGGAQGPAGPGGAQGPAGPGGAQGPAGPGGAQGPAGPGGAQGPAGPGGAQGPAGPGGAQGPAGPGGAQGPAGPGGAQGPAGPGGAQGPAGPGGAQGPAGPGGAQGPAGPGGAQGPAGPGGAQGPAGPGGAQGPAGPGGAQGPAGPGGAQGPAGPGGAQGPAGPGGAQGPAGPGGAQGPAGPGGAQGPAGPGGAQGPAGPGGAHGPAGPKGAHGPAGPKGAHGPAGPKGAHGPAGPKGAQGPAGPGGAQGPAGPGGAQGPAGPGGAQGPAGPGGAQGPAGPGGAQGPAGPGGAQGPAGPGGAQGPAGPGGAQGPAGPGGAQGPAGPGGAQGPAGPGGAQGPAGPGGAQGPAGPGGAQGPAGPGGAQGPAGPGGAQGPAGPGGAQGPAGPGGAQGPAGPGGAQGPAGPGGAQGPAGPGGAQGPAGPGGAQGPAGPGGAQGPAGPGGAQGPAGPGGAHGPAGPKGAHGPAGPKGAHGPAGPKGAHGPAGPKGAQGPAGPGGAQGPAGPGGAQGPAGPGGAQGPAGPGGAQGPAGPGGAQGPAGPGGAQGPAGPGGAQGPAGPGGAQGPAGPGGAQGPAGPGGAQGPAGPGGAQGPAGPGGAQGPAGPGGAQGPAGPGGAQGPAGPGGAQGPAGPGGAQGPAGPGGAQGPAGPGGAQGPAGPGGAQGPAGPGGAQGPAGPGGAQGPAGPGGAQGPAGPGGAQGPAGPGGAHGPAGPKGAHGPAGPKGAHGPAGPKGAHGPAGPKGAQGPAGPGGAQGPAGPGGAQGPAGPGGAQGPAGPGGAQGPAGPGGAQGPAGPGGAQGPAGPGGAQGPAGPGGAQGPAGPGGAQGPAGPGGAQGPAGPGGAQGPAGPGGAQGPAGPGGAQGPAGPGGAQGPAGPGGAQGPAGPGGAQGPAGPGGAQGPAGPGGAQGPAGPGGAQGPAGPGGAQGPAGPGGAQGPAGPGGAQGPAGPGGAQGPAGPGGAHGPAGPKGAHGPAGPKMDPGRYQLSAGRYHYQLVWCQK
modifications: silk-elastin repeat sequence protein copolymer
MMP-1 Activity (MMP-1; 0.001%): 0.04 ± 0.05 ng/mL
MMP-1 Activity (MMP-1; 0.005%): -0.01 ± 0.02 ng/mL
MMP-1 Activity (MMP-1; 0.01%): 0.00 ± 0.02 ng/mL
effect on MMP-1 activity (MMP-1; summary in words): almost complete loss of detectable MMP-1 activity
Elastin (elastin; 0.001%): 63 ± 10 μg/ml media
Elastin (elastin; 0.005%): 59 ± 5 μg/ml media
Elastin (elastin; 0.01%): 50 ± 18 μg/ml media
effect on the number of viable cells [1]: reduce the number of viable cells
Type-1 C Peptide ([2]; 0.001%): 838 ± 75 ng/mL
Type-1 C Peptide ([2]; 0.005%): 1162 ± 194 ng/mL
Type-1 C Peptide ([2]; 0.01%): 956 ± 110 ng/mL
concentrations with adverse effects on cell viability [3]: ≥ 0.07%
